Source: article PMC8199036, “Improved Tumor-Targeting with Peptidomimetic Analogs of Minigastrin ^177Lu-PP-F11N” (Cancers, 2021)
Several values for one entry are separate records, joined by “and”; a condition that tells them apart may be missing. Identical values can stand only once. Like-named read-outs stand apart in the source and are kept apart here.

Key:
[1] = design: method as in PMID 30608664; details: 177Lu-labeled; 24 h incubation, human blood plasma; reported previously; cited from earlier work
[2] = biodistribution in mice with CCK2R-positive xenografts; format: in vivo, female CD1-nu mice; details: female, CD1-nu, mouse, in vivo, total radioactivity; for tissue uptake at 1 h: 1 h p.i.; for tissue uptake at 24 h: 24 h p.i.
Method: (§1) Procedures for biodistribution studies with ^177Lu-labeled conjugates (10 pmol, 100 µL, 0.1 µM in PBS, 0.5 MBq, 1 µg/kg) in female CD1-nu mice with xenografts of A431-CCK2R cells at 1, 4, and 24 h p.i., as well as blocking experiments at 4 h p.i. with a 6000-fold excess of minigastrin have been reported previously and were followed without modifications. Statistical analysis was performed via GraphPad Prism using two-sided analysis of variance. n = 4 animals per group.

[3] = tested on: xenografts of A431-CCK2R cells; experiment: as above; format: in vivo, female CD1-nu mice
Method: as §1

[4] = design: method as in PMID 30608664; details: 177Lu-labeled; mouse blood, 10 min p.i.; reported previously; cited from earlier work
[5] = 10 pmol, read-out: Heart uptake
[6] = 10 pmol, read-out: Intestines uptake
[7] = 10 pmol, read-out: Kidneys uptake
[8] = 10 pmol, read-out: Liver uptake
[9] = 10 pmol, read-out: Pancreas uptake
[10] = 10 pmol, read-out: Spleen uptake
[11] = 10 pmol, read-out: Stomach (CCK2R-positive) uptake
[12] = 10 pmol, read-out: Tumor (CCK2R-positive) uptake

Compound: CCCC[C@H](NC(=O)[C@H](Cc1c[nH]c2ccccc12)NC(=O)CNC(=O)[C@H](Cc1ccc(O)cc1)NC(=O)[C@H](C)NC(=O)[C@@H](CCC(=O)O)NC(=O)[C@@H](CCC(=O)O)NC(=O)[C@@H](CCC(=O)O)NC(=O)[C@@H](CCC(=O)O)NC(=O)[C@@H](CCC(=O)O)NC(=O)[C@@H](CCC(=O)O)NC(=O)CN1CCN(CC(=O)O)CCN(CC(=O)O)CCN(CC(=O)O)CC1)C(=O)N[C@@H](CC(=O)O)C(=O)N[C@@H](Cc1ccccc1)C(N)=O [PP-F11N, DOTA-(DGlu)6-Ala-Tyr-Gly-Trp-Nle-Asp-Phe-NH2]
- Intact Compound In Vitro (%), 24 h, Blood Plasma [1]: 98.1 ± 0.9%
- tissue uptake at 1 h ([2]; 10 pmol, read-out: Bone uptake): 0.88 %ID/g
- tissue uptake at 1 h [2, 5]: 0.08 %ID/g
- tissue uptake at 1 h [2, 6]: 0.12 %ID/g
- tissue uptake at 1 h [2, 7]: 2.75 %ID/g
- tissue uptake at 1 h [2, 8]: 0.09 %ID/g
- tissue uptake at 1 h ([2]; 10 pmol, read-out: Lung uptake): 0.16 %ID/g
- tissue uptake at 1 h ([2]; 10 pmol, read-out: Muscle uptake): 0.13 %ID/g
- tissue uptake at 1 h [2, 9]: 0.18 %ID/g
- tissue uptake at 1 h [2, 10]: 0.06 %ID/g
- tissue uptake at 1 h [2, 11]: 1.02 %ID/g
- tissue uptake at 1 h [2, 12]: 6.92 %ID/g
- tissue uptake at 4 h ([2]; 10 pmol, 4 h (blocked), excess minigastrin, read-out: Bone uptake): 0.15 %ID/g
- tissue uptake at 4 h ([2]; 10 pmol, 4 h (blocked), excess minigastrin, read-out: Muscle uptake): 0.01 %ID/g
- tissue uptake at 4 h ([2]; 10 pmol, 4 h p.i., read-out: Blood uptake): 0.01 %ID/g
- tissue uptake at 4 h ([2]; 10 pmol, 4 h p.i., read-out: Bone uptake): 0.22 %ID/g
- tissue uptake at 4 h ([2]; 10 pmol, 4 h p.i., read-out: Heart uptake): 0.03 %ID/g
- tissue uptake at 4 h ([2]; 10 pmol, 4 h p.i., read-out: Intestines uptake): 0.05 %ID/g
- tissue uptake at 4 h ([2]; 10 pmol, 4 h p.i., read-out: Kidneys uptake): 2.42 %ID/g
- tissue uptake at 4 h ([2]; 10 pmol, 4 h p.i., read-out: Liver uptake): 0.06 %ID/g
- tissue uptake at 4 h ([2]; 10 pmol, 4 h p.i., read-out: Lung uptake): 0.03 %ID/g
- tissue uptake at 4 h ([2]; 10 pmol, 4 h p.i., read-out: Muscle uptake): 0.02 %ID/g
- tissue uptake at 4 h ([2]; 10 pmol, 4 h p.i., read-out: Pancreas uptake): 0.09 %ID/g
- tissue uptake at 4 h ([2]; 10 pmol, 4 h p.i., read-out: Spleen uptake): 0.03 %ID/g
- tissue uptake at 4 h ([2]; 10 pmol, 4 h p.i., read-out: Stomach (CCK2R-positive) uptake): 1.04 %ID/g
- tissue uptake at 4 h ([2]; 10 pmol, 4 h p.i., read-out: Tumor (CCK2R-positive) uptake): 4.07 %ID/g
- tissue uptake at 24 h ([2]; 10 pmol, read-out: Bone uptake): 0.1 %ID/g
- tissue uptake at 24 h [2, 5]: 0.01 %ID/g
- tissue uptake at 24 h [2, 6]: 0.03 %ID/g
- tissue uptake at 24 h [2, 7]: 1.72 %ID/g
- tissue uptake at 24 h [2, 8]: 0.04 %ID/g
- tissue uptake at 24 h ([2]; 10 pmol, read-out: Lung uptake): 0.02 %ID/g
- tissue uptake at 24 h [2, 9]: 0.08 %ID/g
- tissue uptake at 24 h [2, 10]: 0.02 %ID/g
- tissue uptake at 24 h [2, 11]: 0.67 %ID/g
- tissue uptake at 24 h [2, 12]: 2.73 %ID/g
- tissue uptake at 4 h ([2]; 4 h (blocked), excess minigastrin, read-out: Blood uptake): 0.01 %ID/g
- tissue uptake at 4 h ([2]; 4 h (blocked), excess minigastrin, read-out: Heart uptake): 0.02 %ID/g
- tissue uptake at 4 h ([2]; 4 h (blocked), excess minigastrin, read-out: Intestines uptake): 0.03 %ID/g
- tissue uptake at 4 h ([2]; 4 h (blocked), excess minigastrin, read-out: Kidneys uptake): 2.57 %ID/g
- tissue uptake at 4 h ([2]; 4 h (blocked), excess minigastrin, read-out: Liver uptake): 0.07 %ID/g
- tissue uptake at 4 h ([2]; 4 h (blocked), excess minigastrin, read-out: Lung uptake): 0.04 %ID/g
- tissue uptake at 4 h ([2]; 4 h (blocked), excess minigastrin, read-out: Pancreas uptake): 0.04 %ID/g
- tissue uptake at 4 h ([2]; 4 h (blocked), excess minigastrin, read-out: Spleen uptake): 0.04 %ID/g
- tissue uptake at 4 h ([2]; 4 h (blocked), excess minigastrin, read-out: Stomach (CCK2R-positive) uptake): 0.12 %ID/g
- tissue uptake at 4 h ([2]; 4 h (blocked), excess minigastrin, read-out: Tumor (CCK2R-positive) uptake): 1.3 %ID/g
- Tumor (CCK2R-positive) uptake ([3]; 1 h p.i.): 6.92 ± 2.21 % i.A./g
- Tumor (CCK2R-positive) uptake ([3]; 4 h p.i.): 4.07 ± 1.40 % i.A./g
- Tumor (CCK2R-positive) uptake ([3]; 24 h p.i.): 2.73 ± 0.84 % i.A./g and 2.7 ± 0.8 % i.A./g
- Intact Compound In Vivo (%), 10 min [4]: 43% and 43.1 ± 2.7%
